Blank lines part the entries; values can stand above or below the binder they belong to. Bridges are numbered along the chain shown (N, C = ends). Where no end group is shown, it is not given here. [ ]: non-standard residue; d: D form. 1Nal = N[C@@H](Cc1cccc2ccccc12)C(=O)O; 2Nal = N[C@@H](Cc1ccc2ccccc2c1)C(=O)O; d2Nal = N[C@H](Cc1ccc2ccccc2c1)C(=O)O; hPhe = N[C@@H](CCc1ccccc1)C(=O)O; Cha = N[C@@H](CC1CCCCC1)C(=O)O; dCha = N[C@H](CC1CCCCC1)C(=O)O; dTle = CC(C)(C)[C@@H](N)C(=O)O; Nle = CCCC[C@H](N)C(=O)O; Apn = not defined here; Bal = not defined here; Ahx = NCCCCCC(=O)O; GABA = NCCCC(=O)O; βAla = NCCC(=O)O
Target: hMC4-R (human), P32245
Sequence (P32245 whole entry): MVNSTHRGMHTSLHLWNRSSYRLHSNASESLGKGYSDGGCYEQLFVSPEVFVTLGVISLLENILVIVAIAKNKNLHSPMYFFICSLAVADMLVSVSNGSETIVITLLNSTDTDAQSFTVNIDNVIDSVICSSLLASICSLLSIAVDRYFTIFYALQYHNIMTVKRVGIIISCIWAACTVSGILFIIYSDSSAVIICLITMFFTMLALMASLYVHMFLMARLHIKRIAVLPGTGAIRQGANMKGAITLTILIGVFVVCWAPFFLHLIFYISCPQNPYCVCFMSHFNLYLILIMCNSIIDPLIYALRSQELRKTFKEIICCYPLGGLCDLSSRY
Experiment: competition
Details: modification not given

Ki: 3.37 nM
Binder: Ac-[hPhe]DH[dF]RW[GABA]K-NH2 (lactam 2-8) [Ac-hPhe-c(Asp-His-D-Phe-Arg-Trp-Gaba-Lys)-NH2]

Ki: 0.931 nM
Binder: Ac-[hPhe]DH[d2Nal]RW[GABA]K-NH2 (lactam 2-8) [Ac-hPhe-c(Asp-His-D-2-Nal-Arg-Trp-Gaba-Lys)-NH2]

Ki: 3.07 nM
B2: Ac-Nle-c(Cys-D-Ala-His-D-2-Nal-Arg-1-Nal-Cys)-NH2 (peptide)
chain: Ac-[Nle]C[dA]H[d2Nal]R[1Nal]C-NH2
modifications: disulfide 2-8
SMILES: CCCC[C@H](NC(C)=O)C(=O)N[C@H]1CSSC[C@@H](C(N)=O)NC(=O)[C@H](Cc2cccc3ccccc23)NC(=O)[C@H](CCCNC(=N)N)NC(=O)[C@@H](Cc2ccc3ccccc3c2)NC(=O)[C@H](Cc2c[nH]cn2)NC(=O)[C@@H](C)NC1=O

Ki: 0.617 nM
B3: Ac-Nle-c(Asp-His-D-Phe-Arg-Trp-β-Ala-Lys)-NH2 (peptide)
chain: Ac-[Nle]DH[dF]RW[βAla]K-NH2
modifications: lactam 2-8
SMILES: CCCC[C@H](NC(C)=O)C(=O)N[C@H]1CC(=O)NCCCC[C@@H](C(N)=O)NC(=O)CCNC(=O)[C@H](Cc2c[nH]c3ccccc23)NC(=O)[C@H](CCCNC(=N)N)NC(=O)[C@@H](Cc2ccccc2)NC(=O)[C@H](Cc2c[nH]cn2)NC1=O

Ki: 0.884 nM
B4: Ac-Cha-c(Cys-His-D-Phe-Arg-Trp-Gaba-Cys)-NH2 (peptide)
chain: Ac-[Cha]CH[dF]RW[GABA]C-NH2
modifications: disulfide 2-8
SMILES: CC(=O)N[C@@H](CC1CCCCC1)C(=O)N[C@H]1CSSC[C@@H](C(N)=O)NC(=O)CCCNC(=O)[C@H](Cc2c[nH]c3ccccc23)NC(=O)[C@H](CCCNC(=N)N)NC(=O)[C@@H](Cc2ccccc2)NC(=O)[C@H](Cc2c[nH]cn2)NC1=O

Ki: 0.47 nM
Binder: [Nle]CH[dF]RW[GABA]C-NH2 (disulfide 2-8) [Nle-c(Cys-His-D-Phe-Arg-Trp-Gaba-Cys)-NH2]

Ki: 1.04 nM
Binder: Ac-[Nle]DH[dF]RW[GABA]K-NH2 (lactam 2-8) [Ac-Nle-c(Asp-His-D-Phe-Arg-Trp-Gaba-Lys)-NH2]

Ki: 2.94 nM
B6: Ac-2-Nal-c(Cys-His-D-Phe-Arg-Trp-Gaba-Cys)-NH2 (peptide)
chain: Ac-[2Nal]CH[dF]RW[GABA]C-NH2
modifications: disulfide 2-8
SMILES: CC(=O)N[C@@H](Cc1ccc2ccccc2c1)C(=O)N[C@H]1CSSC[C@@H](C(N)=O)NC(=O)CCCNC(=O)[C@H](Cc2c[nH]c3ccccc23)NC(=O)[C@H](CCCNC(=N)N)NC(=O)[C@@H](Cc2ccccc2)NC(=O)[C@H](Cc2c[nH]cn2)NC1=O

Ki: 2.82 nM
B7: Ac-Cha-c(Asp-His-D-2-Nal-Arg-Trp-Gaba-Lys)-NH2 (peptide)
chain: Ac-[Cha]DH[d2Nal]RW[GABA]K-NH2
modifications: lactam 2-8
SMILES: CC(=O)N[C@@H](CC1CCCCC1)C(=O)N[C@H]1CC(=O)NCCCC[C@@H](C(N)=O)NC(=O)CCCNC(=O)[C@H](Cc2c[nH]c3ccccc23)NC(=O)[C@H](CCCNC(=N)N)NC(=O)[C@@H](Cc2ccc3ccccc3c2)NC(=O)[C@H](Cc2c[nH]cn2)NC1=O

Ki: 9 nM
Binder: Ac-[Nle]C[dI]H[dF]RWC-NH2 (disulfide 2-8) [Ac-Nle-c(Cys-D-Ile-His-D-Phe-Arg-Trp-Cys)-NH2]

Ki: 16.6 nM
Binder: Ac-[Nle]C[dA]H[d2Nal]R[Bal]C-NH2 (disulfide 2-8; reading uncertain) [Ac-Nle-c(Cys-D-Ala-His-D-2-Nal-Arg-Bal-Cys)-NH2]

Ki: 40.7 nM
B9: Ac-c(Cys-D-Ala-His-D-Phe-Arg-2-Nal-Ala-Cys)-NH2 (peptide)
chain: Ac-C[dA]H[dF]R[2Nal]AC-NH2
modifications: disulfide 1-8
SMILES: CC(=O)N[C@H]1CSSC[C@@H](C(N)=O)NC(=O)[C@H](C)NC(=O)[C@H](Cc2ccc3ccccc3c2)NC(=O)[C@H](CCCNC(=N)N)NC(=O)[C@@H](Cc2ccccc2)NC(=O)[C@H](Cc2c[nH]cn2)NC(=O)[C@@H](C)NC1=O

Ki: 11.2 nM
Binder: Ac-[Nle]C[dTle]H[dF]RWC-NH2 (disulfide 2-8) [Ac-Nle-c(Cys-D-Tle-His-D-Phe-Arg-Trp-Cys)-NH2]

The remaining lines, values behind:

Binder: Ac-[Nle]CH[d2Nal]RW[GABA]C-NH2 (disulfide 2-8) [Ac-Nle-c(Cys-His-D-2-Nal-Arg-Trp-Gaba-Cys)-NH2]
Ki: 0.375 nM

B1: Ac-Nle-c(Cys-His-D-Phe-Arg-Trp-Ahx-Cys)-NH2 (peptide)
chain: Ac-[Nle]CH[dF]RW[Ahx]C-NH2
modifications: disulfide 2-8
SMILES: CCCC[C@H](NC(C)=O)C(=O)N[C@H]1CSSC[C@@H](C(N)=O)NC(=O)CCCCCNC(=O)[C@H](Cc2c[nH]c3ccccc23)NC(=O)[C@H](CCCNC(=N)N)NC(=O)[C@@H](Cc2ccccc2)NC(=O)[C@H](Cc2c[nH]cn2)NC1=O
Ki: 1.23 nM

Binder: Ac-[Nle]DH[dF]RW[Apn]K-NH2 (lactam 2-8; reading uncertain) [Ac-Nle-c(Asp-His-D-Phe-Arg-Trp-Apn-Lys)-NH2]
Ki: 11.1 nM

B5: Ac-Nle-c(Cys-D-Ala-His-D-2-Nal-Arg-2-Nal-Cys)-NH2 (peptide)
chain: Ac-[Nle]C[dA]H[d2Nal]R[2Nal]C-NH2
modifications: disulfide 2-8
SMILES: CCCC[C@H](NC(C)=O)C(=O)N[C@H]1CSSC[C@@H](C(N)=O)NC(=O)[C@H](Cc2ccc3ccccc3c2)NC(=O)[C@H](CCCNC(=N)N)NC(=O)[C@@H](Cc2ccc3ccccc3c2)NC(=O)[C@H](Cc2c[nH]cn2)NC(=O)[C@@H](C)NC1=O
Ki: 2.53 nM

Binder: [Nle]CH[dF]RW[Apn]C-NH2 (disulfide 2-8; reading uncertain) [Nle-c(Cys-His-D-Phe-Arg-Trp-Apn-Cys)-NH2]
Ki: 0.85 nM

Binder: Ac-[Nle]C[dV]H[dF]RWC-NH2 (disulfide 2-8) [Ac-Nle-c(Cys-D-Val-His-D-Phe-Arg-Trp-Cys)-NH2]
Ki: 10.1 nM

B8: Ac-Nle-c(Cys-D-Leu-His-D-Phe-Arg-Trp-Cys)-NH2 (peptide)
chain: Ac-[Nle]C[dL]H[dF]RWC-NH2
modifications: disulfide 2-8
SMILES: CCCC[C@H](NC(C)=O)C(=O)N[C@H]1CSSC[C@@H](C(N)=O)NC(=O)[C@H](Cc2c[nH]c3ccccc23)NC(=O)[C@H](CCCNC(=N)N)NC(=O)[C@@H](Cc2ccccc2)NC(=O)[C@H](Cc2c[nH]cn2)NC(=O)[C@@H](CC(C)C)NC1=O
Ki: 4.13 nM

Binder: Ac-[Nle]CH[d2Nal]RW[Ahx]C-NH2 (disulfide 2-8) [Ac-Nle-c(Cys-His-D-2-Nal-Arg-Trp-Ahx-Cys)-NH2]
Ki: 0.998 nM

Binder: Ac-[Nle]CH[dF]RW[Apn]C-NH2 (disulfide 2-8; reading uncertain) [Ac-Nle-c(Cys-His-D-Phe-Arg-Trp-Apn-Cys)-NH2]
Ki: 0.894 nM

B10: Ac-Nle-c(Cys-D-Cha-His-D-Phe-Arg-Trp-Cys)-NH2 (peptide)
chain: Ac-[Nle]C[dCha]H[dF]RWC-NH2
modifications: disulfide 2-8
SMILES: CCCC[C@H](NC(C)=O)C(=O)N[C@H]1CSSC[C@@H](C(N)=O)NC(=O)[C@H](Cc2c[nH]c3ccccc23)NC(=O)[C@H](CCCNC(=N)N)NC(=O)[C@@H](Cc2ccccc2)NC(=O)[C@H](Cc2c[nH]cn2)NC(=O)[C@@H](CC2CCCCC2)NC1=O
Ki: 1.41 nM

Source: patent US20170240595
